{"source": "patent US20250320304A1", "about": "(Janssen / Centocor, published 2025)", "binders": {"B1": {"name": "TD01B49 (bispecific antibody, human IgG1, kappa, L234A L235A)", "light": "DIVMTQSQKFMSTTVGDRVSITCKASQNVGTAVAWYQQKPGQSPKLLIYSASNRYTGVPDRFTGTGSGTDFTLTIINVQSEDLADYFCQQYGSSPWTFGGGTKLEIKRTVAAPSVFIFPPSDEQLKSGTASVVCLLNNFYPREAKVQWKVDNALQSGNSQESVTEQDSKDSTYSLSSTLTLSKADYEKHKVYACEVTHQGLSSPVTKSFNRGEC", "heavy": "QVQLQQSGAELVKPGASVKLSCKASGYTFTNNVMHWVRQKPGQGLEWIGYILPYNDGTKYNEKFKGKATLTSDKSSSTAYMELSSLTSEDSAVYYCARYDYDGYFDYWGQGTTLTVSSASTKGPSVFPLAPSSKSTSGGTAALGCLVKDYFPEPVTVSWNSGALTSGVHTFPAVLQSSGLYSLSSVVTVPSSSLGTQTYICNVNHKPSNTKVDKKVEPKSCDKTHTCPPCPAPEAAGGPSVFLFPPKPKDTLMISRTPEVTCVVVSVSHEDPEVKFNWYVDGVEVHNAKTKPREEQYNSTYRVVSVLTVLHQDWLNGKEYKCKVSNKALPAPIEKTISKAKGQPREPQVYTLPPSREEMTKNQVSLSCAVKGFYPSDIAVEWESNGQPENNYKTTPPVLDSDGSFFLVSKLTVDKSRWQQGNVFSCSVMHEALHNRFTQKSLSLSPGK", "chain": "not shown", "notes": "also called BCMB749 × Cris7b scFv Bird"}}, "key": {"[1]": {"biological_target": "T1, Human CD3E-CD3D Heterodimer Protein (Acro Biosystems) (human, UniProt P07766 23-126; P04234 22-105)", "T1 construct": "also called recombinant CD3 antigen (human CD3 epsilon and CD3 delta heterodimer protein, Acro Biosystems); Recombinant CD3E/D heterodimer protein", "T1 sequence (P07766 23-126 limits assumed, chain 1 of 2)": "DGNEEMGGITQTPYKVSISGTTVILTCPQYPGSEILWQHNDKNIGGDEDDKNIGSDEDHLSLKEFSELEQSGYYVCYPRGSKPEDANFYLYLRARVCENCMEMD", "T1 sequence (P04234 22-105 limits assumed, chain 2 of 2)": "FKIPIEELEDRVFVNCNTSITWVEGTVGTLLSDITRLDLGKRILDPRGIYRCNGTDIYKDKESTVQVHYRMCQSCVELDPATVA", "experiment": "BLI (Octet), bispecific on anti-human Fc sensor, CD3 in solution, 2:1 heterogeneous ligand model, ka", "method": "(§1) To evaluate CD3 binding, anti-human IgG Fc (AHC) capture biosensors (Sartorius) were loaded with 3 ug/mL bispecific sample of interest in PBS. After loading sensor tips were washed in 1×DPBS+0.02% Tween 20+1 mg/mL Bovine Serum Albumin (BSA) for blocking. […] Association was monitored for 1800 s and dissociation for 900 s, respectively. All measurements were performed at 30° C. with agitation at 1,200 rpm. Sensorgrams were referenced for buffer effects and then analyzed using the FORTEBIO Data Analysis HT Software (V. 12.0.1.55). Kinetic responses were baseline subtracted, aligned and globally fit using a 1:1 fitting model or 2:1 heterogeneous ligand binding model to obtain values for association (Kon), dissociation (Koff) rate constants and the equilibrium dissociation constants (KD).\n(§2) Recombinant CD3E/D heterodimer protein was used to assess binding of the scFv/spFv anti-CD3 arms."}, "[2]": {"biological_target": "T2, biotinylated-BCMA protein (UniProt Q02223 1-54, limits assumed, biotinylated (site not stated))", "T2 construct": "also called recombinant BCMA antigen; recombinant biotinylated BCMA", "T2 sequence (looked up)": "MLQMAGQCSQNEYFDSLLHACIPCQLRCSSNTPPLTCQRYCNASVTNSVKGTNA", "experiment": "BLI (Octet), biotinylated BCMA on streptavidin sensor, bispecific in solution, 1:1 model"}, "[3]": {"biological_target": "T1, Human CD3E-CD3D Heterodimer Protein …", "experiment": "BLI (Octet), bispecific on anti-human Fc sensor, CD3 in solution, 2:1 heterogeneous ligand model, kdis2", "method": "as §1, §2"}, "[4]": {"biological_target": "T1, Human CD3E-CD3D Heterodimer Protein …", "experiment": "BLI (Octet), bispecific on anti-human Fc sensor, CD3 in solution, 2:1 heterogeneous ligand model, ka2", "method": "as §1, §2"}, "[5]": {"biological_target": "T1, Human CD3E-CD3D Heterodimer Protein …", "experiment": "BLI (Octet), bispecific on anti-human Fc sensor, CD3 in solution, 2:1 heterogeneous ligand model, KD1", "method": "as §1, §2"}, "[6]": {"biological_target": "T2, biotinylated-BCMA protein", "experiment": "ELISA, chemiluminescence: biotinylated recombinant BCMA on streptavidin plates, detection with goat anti-human IgG F(ab')2 HRP", "method": "Bispecific antibodies were analyzed for binding to either recombinant biotinylated BCMA or recombinant biotinylated CD3 antigen (human CD3 epsilon and CD3 delta heterodimer protein, Acro Biosystems). ELISAs were carried out according to standard protocols and plates were washed three time with TBS containing 0.05% Tween 20 (TBS-T) between each incubation step. Ninety-six-well MAXISORP plates (Nunc) were coated with 1 ug/mL of Streptavidin, diluted in 1×dPBS for 18 hours at 4° C. All plates were coated with 20 nM of antigen of interest for 1 hour at room temperature and then blocked with 3% BSA in PBS-T (1×dPBs with 0.05% tween 20) for 1 hour at room temperature. After blocking, plates were incubated with serial dilution of purified bispecific samples in PBS-T for 1 h at RT, and were then incubated with goat anti-human IgG F(ab′2)2 HRP (Jackson ImmunoResearch) for 1 hour at room temperature. After washing, BM Chemilluminesence ELISA Substrate (POD) was added (Millipore) and plates were immediately read on an ENVISION plate reader (Perkin Elmer) using ultrasensitive illuminesence. […] PRISM, where curves were generated and analyzed with a nonlinear regression curve fit."}, "[7]": {"biological_target": "T1, Human CD3E-CD3D Heterodimer Protein …", "experiment": "BLI (Octet), bispecific on anti-human Fc sensor, CD3 in solution, 2:1 heterogeneous ligand model, KD2", "method": "as §1, §2"}, "[8]": {"biological_target": "T1, Human CD3E-CD3D Heterodimer Protein …", "experiment": "BLI (Octet), bispecific on anti-human Fc sensor, CD3 in solution, 2:1 heterogeneous ligand model, kdis", "method": "as §1, §2"}}}
{"binder": "B1", "values": [{"measurement": "kon", "setting": "[1]", "result": 160000, "unit": "M⁻¹ s⁻¹"}, {"measurement": "Kd", "setting": "[2]", "result": 4.02, "unit": "nM"}, {"measurement": "koff", "setting": "[2]", "result": 0.00145, "unit": "s⁻¹"}, {"measurement": "kon", "setting": "[2]", "result": 362000, "unit": "M⁻¹ s⁻¹"}, {"measurement": "koff", "setting": "[3]", "result": "5.61e-05", "unit": "s⁻¹"}, {"measurement": "kon", "setting": "[4]", "result": 16400, "unit": "M⁻¹ s⁻¹"}, {"measurement": "Kd", "setting": "[5]", "result": 0.127, "unit": "nM"}, {"measurement": "EC50 (read off the curve)", "setting": "[6]", "result": "~2", "unit": "nM"}, {"measurement": "Kd", "setting": "[7]", "result": 3.42, "unit": "nM"}, {"measurement": "koff", "setting": "[8]", "result": "2.04e-05", "unit": "s⁻¹"}]}
